The target of the data set is LetA (UniProt Q8KQL1 1-219). Description: EMSA.

Two molecules from PMC2888818 can be followed below.

B1: rsmY upstream 35mer (dsDNA)
DNA 1: CTCTTCTTAATTGAGAAATTTCTTACATATTACTGC
DNA 2: GCAGTAATATGTAAGAAATTTCTCAATTAAGAAGAG
Take B1: the binding result is “binds”.

B2: rsmZ upstream 35mer (dsDNA)
DNA 1: GTAATTGATGTAAGAAATTTCTCAATTCCATAGA
DNA 2: TCTATGGAATTGAGAAATTTCTTACATCAATTAC
Regarding B2, the binding result is recorded as “binds”.
